Laboratory results taken from paper PMC2962642, “Familial Glucocorticoid Receptor Haploinsufficiency by Non-Sense Mediated mRNA Decay, Adrenal Hyperplasia and Apparent Mineralocorticoid Excess”.

Biological target: WT hGRalpha (glucocorticoid receptor) (Homo sapiens, UniProt P04150 1-777)
Test: EMSA; complex abolished by 50 ng unlabeled probe; 15 min at 25 C; 4.5% acrylamide/bisacrylamide (37:1) gel, 0.25x TBE (50 mM Tris, 50 mM boric acid, 1 mM EDTA); binding buffer and pH not stated (as in ref. 26)
Details: protein: ivt; chain copies: 2; label: 32P-dCTP (Klenow fill-in); 5' overhangs AGCT, filled in by Klenow for the labeled probe

Chain of WT hGRalpha (glucocorticoid receptor) (P04150 whole entry): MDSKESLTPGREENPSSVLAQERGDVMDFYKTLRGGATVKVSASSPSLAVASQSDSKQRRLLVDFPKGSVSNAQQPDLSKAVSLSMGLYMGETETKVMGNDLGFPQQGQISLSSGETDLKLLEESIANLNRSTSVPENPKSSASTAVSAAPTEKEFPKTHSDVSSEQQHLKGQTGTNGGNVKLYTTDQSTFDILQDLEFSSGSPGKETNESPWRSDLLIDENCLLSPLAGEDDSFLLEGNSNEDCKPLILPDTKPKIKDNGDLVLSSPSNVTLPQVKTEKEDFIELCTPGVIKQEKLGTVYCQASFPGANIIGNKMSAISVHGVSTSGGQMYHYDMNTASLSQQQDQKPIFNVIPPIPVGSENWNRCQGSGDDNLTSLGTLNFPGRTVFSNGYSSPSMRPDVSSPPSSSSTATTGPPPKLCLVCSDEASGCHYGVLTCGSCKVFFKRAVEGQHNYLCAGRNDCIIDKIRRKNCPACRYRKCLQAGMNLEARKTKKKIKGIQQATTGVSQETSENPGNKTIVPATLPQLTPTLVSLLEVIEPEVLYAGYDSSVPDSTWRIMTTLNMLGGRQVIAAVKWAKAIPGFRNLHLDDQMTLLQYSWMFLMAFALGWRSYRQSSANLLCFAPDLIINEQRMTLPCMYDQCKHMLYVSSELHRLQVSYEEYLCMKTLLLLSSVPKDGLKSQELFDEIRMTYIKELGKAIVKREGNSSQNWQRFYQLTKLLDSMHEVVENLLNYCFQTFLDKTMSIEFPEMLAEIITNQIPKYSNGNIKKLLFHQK

B1: GRE consensus probe (dsDNA)
DNA 1: AGCTGCTCAGCTAGAACACTCTGTTCTCTACT
DNA 2: AGCTAGTAGAGAACAGAGTGTTCTAGCTAGC
B1: binds.
